This note sets out measurements from US20120238503A1.

The assay has as its target α3β1 integrin on PC12 cells (rat (PC12 cells)) (UniProt P49134). Put plainly: cell-based or functional assay.

Ends that are not written are not given here.

Sequence of α3β1 integrin on PC12 cells (rat (PC12 cells)) (P49134 21-798): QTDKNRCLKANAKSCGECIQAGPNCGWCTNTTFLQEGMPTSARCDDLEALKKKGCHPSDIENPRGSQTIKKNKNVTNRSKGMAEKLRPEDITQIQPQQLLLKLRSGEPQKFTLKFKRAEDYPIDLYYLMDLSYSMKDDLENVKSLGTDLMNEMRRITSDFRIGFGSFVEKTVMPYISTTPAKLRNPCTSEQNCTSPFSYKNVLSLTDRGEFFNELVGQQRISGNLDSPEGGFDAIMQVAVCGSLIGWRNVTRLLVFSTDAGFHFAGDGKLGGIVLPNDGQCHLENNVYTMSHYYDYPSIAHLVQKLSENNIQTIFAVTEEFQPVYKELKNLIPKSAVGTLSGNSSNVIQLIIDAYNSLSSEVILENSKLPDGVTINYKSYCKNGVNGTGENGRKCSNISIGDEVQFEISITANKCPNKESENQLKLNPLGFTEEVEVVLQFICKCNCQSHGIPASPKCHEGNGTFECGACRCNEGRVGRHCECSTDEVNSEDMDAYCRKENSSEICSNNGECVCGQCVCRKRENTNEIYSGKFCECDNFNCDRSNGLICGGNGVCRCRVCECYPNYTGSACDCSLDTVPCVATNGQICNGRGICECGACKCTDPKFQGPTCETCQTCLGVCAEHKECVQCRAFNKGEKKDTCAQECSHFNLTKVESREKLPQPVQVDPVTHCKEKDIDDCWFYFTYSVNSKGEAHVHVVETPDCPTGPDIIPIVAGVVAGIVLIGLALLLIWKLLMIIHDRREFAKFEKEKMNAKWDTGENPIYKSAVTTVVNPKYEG

B1: Ln2-LG3-P2 peptide (…) (peptide)
peptide: RNIPPFEGCIWN-NH2
As to B1, the inhibition of PC12 cell adhesion to coated rLG3 (25 µg/mL) by soluble peptide was 40 % inhibition.
